The test system of this data set is MS2 coat protein. Kind of data set: apparent KD of MS2 coat protein; designed switch direction (-1 OFF switch, 1 ON switch): -1; higher = weaker reporter binding. A digest of the protocol:
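Each step of the titration lasted 0.8–1.5 h at the lowest concentration and 10–20 min at the highest. The protein, SNAP-549-labelled MS2 coat protein, went from 0.7 or 1.5 nM doubling to 3 µM over RNA switches transcribed on Illumina chips by stalled E. coli RNA polymerase. Normalised cluster fluorescence was curve-fitted, and the per-design median over clusters is given as apparent KD.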

Where [1] appears, read: Eterna round: R95, input ligand: microRNA oligo, concentration not stated.
The mark [2] stands for this setting: input ligand: microRNA oligo, concentration not stated.
Setting [3] is: Eterna round: R95, input ligand: FMN 200 uM.
[4] abbreviates: Eterna round: R95, input ligand: none.

As to “AAGAUACAUGAGGAUCACCCAUGUGAGGAUAUGAGCACGCCGGUGACGGUGAUAAGAAUCAGAAGGCACAAUGG [JL-ex1-4.32 salish99 mod] (Eterna round: R97, puzzle: Exclusion 1)”, the “apparent KD of MS2 coat protein” value came to 151 nM (input ligand: FMN 200 uM) and 327 nM (input ligand: none).

Regarding “AAGAUGCCAAAGGAUAUCGAAGGAGUGGCGCGGCGAGAAGGUUGGACAUGAGGAUCACCCAUGUGGUGGCUCCC [Usmaarri] (Eterna round: R97, puzzle: Exclusion 6)”, the “apparent KD of MS2 coat protein” value was 703 nM (input ligand: FMN 200 uM) and 1070 nM (input ligand: none).

Regarding “AAGAUGUGAGGAUAUCACGAGAACGUCACACGGACGCUCUCUGAGAAGGCACAUGAGGAUCACCCAUGUCCAAC [EX4 A.21] (Eterna round: R97, puzzle: Exclusion 4)”, the “apparent KD of MS2 coat protein” value runs as follows: (input ligand: FMN 200 uM) 207 nM; (input ligand: none) 47.2 nM.

As for “AAGCAGUCAGGAUAUCGUUAAUUUAGUUGUUUGUAUUAGUUCGAGAAGGGACAUGAGGAUCACCCAUGUAUGAA [Ex4 #42] (Eterna round: R97, puzzle: Exclusion 4)”, the “apparent KD of MS2 coat protein” value was 51.5 nM (input ligand: FMN 200 uM) and 48.3 nM (input ligand: none).

For “AAGGAUAGAGGAUAUACAUAGAUACAGAUUCGUGUAGUCCUACAUGAGGAUCACCCAUGUAGAAGGCUAUCCUA [Fiskers Ex 2 - 13] (puzzle: Exclusion 2)”, the “apparent KD of MS2 coat protein” value under setting [1] is 11.3 nM.

“AAGGGUACUUUCGGAACGACAUGAGGAUCACCCAUGUAUACUGAGGAUAUCUACUACUAAGGACGGGAGAAGGCAGUGUAAUGU [Ex NG3 #77] (Eterna round: R96, puzzle: Exclusion NG 3)”: the “apparent KD of MS2 coat protein” value under setting [2] is 13.6 nM.

For the sequence “AAGUACCGGUGAGGAUAUUUUUAAUAGAACUUUAUGAUAUACAUGAGGAUCACCCAUGUUACUUUAAAGAAGGCAUCGGAUAAA [Mat - Exclusion NG 2 - Mod of JL - D87] (Eterna round: R96, puzzle: Exclusion NG 2)”, the “apparent KD of MS2 coat protein” value under setting [2] came out at 12 nM.

Turning to “AAGUACCGUCACGAUAGUGAUGGUACAACAAGCAAAUACACAUGAGGAUCACCCAUGUCCUCUUUUGCUCGUCUUGU [Sensor 3 - 0] (puzzle: Sensor v3, turn-off variant 2)”, the “apparent KD of MS2 coat protein” value runs as follows: under setting [3], 674 nM; under setting [1], 236 nM; under setting [4], 767 nM.

Take “AAGUACCGUCACGAUAGUGAUGGUACAACAAGCAAGUGUACAUGAGGAUCACCCAUGUCCUCUUUUGCUCGUCUUAU [Sensor 3 - 95] (puzzle: Sensor v3, turn-off variant 2)”: the “apparent KD of MS2 coat protein” value is, setting by setting: under setting [3], 19.7 nM; under setting [1], 16.9 nM; under setting [4], 18.6 nM.

With “AAGUACCGUCACGAUAGUGAUGGUACAACAAGCAGUGACACAUGAGGAUCACCCAUGUCCUCAAUUGCUCGUCUUAU [Sensor 3 - 76] (puzzle: Sensor v3, turn-off variant 2)”, the “apparent KD of MS2 coat protein” value is, setting by setting: under setting [3], 179 nM; under setting [1], 383 nM; under setting [4], 156 nM.

“AAGUACCGUCACGAUAGUGAUGGUACAGCAAGCAAAUGUACAUGAGGAUCACCCAUGUCCUCUUUUGCUCGUCUUAU [Sensor 3 - 98] (puzzle: Sensor v3, turn-off variant 2)”: the “apparent KD of MS2 coat protein” value is, setting by setting: under setting [3], 49.1 nM; under setting [1], 31.1 nM; under setting [4], 53.2 nM.

Consider “AAGUAGACGGUGAGGAUAUAGGUGGAAUGACCCAUUUAGAAGGUACAUGAGGAUCACCCAUGUGGGUAACGUCG [Brourd's EX4 #28] (Eterna round: R97, puzzle: Brourd's mod of Exclusion 4)”, for which the “apparent KD of MS2 coat protein” value reads like this: (input ligand: FMN 200 uM) 156 nM; (input ligand: none) 166 nM.

On to “AAGUAGGCAGGAUAUACAUGAGGAUCACCCAUGUGCCCAUGAAAGGUACUUUCGAAAGGUAGAAGGGCCUACAA [ChP 13.04.2015 #5] (puzzle: Exclusion 3)”, for which, under setting [1], the “apparent KD of MS2 coat protein” value amounted to 14.6 nM.

Consider “AAGUGACAUGAGGAUCACCCAUGUCAGGAUAUGCGCCGCUUACGCCUAAGUGUAGGGAGCAGAAGGGACAUAGA [EX1 B.2] (Eterna round: R97, puzzle: Exclusion 1)”, for which the “apparent KD of MS2 coat protein” value (input ligand: FMN 200 uM) came out at 30.5 nM and the “apparent KD of MS2 coat protein” value (input ligand: none) was 25.7 nM.

On to “AAGUUACAUGAGGAUCACCCAUGUGAGGAUAUGAGUCAGUCACGGUGACGUGGCUGACUCAGAAGGCACAAAGG [JL-ex1-4.37 salish99 mod] (Eterna round: R97, puzzle: Exclusion 1)”, for which the “apparent KD of MS2 coat protein” value runs as follows: (input ligand: FMN 200 uM) 256 nM; (input ligand: none) 98.1 nM.

As to “AAUAACAAGCAGAUCCUAAACAUGAGGAUCACCCAUGUGUUCGUCUUGUAAAGUACUAUCACGAAAGUGAUAGUACA (Eterna round: R97, puzzle: Sensor, turn-off variant 1)”, the “apparent KD of MS2 coat protein” value is, setting by setting: (input ligand: FMN 200 uM) 68.7 nM; (input ligand: none) 66.2 nM.

In the case of “AAUAACAAGCCGAUCCUUCACAUGAGGAUCACCCAUGUGUUCGUCUUGUAAAGUACUAUCACGAAAGUGAUAGUACA (Eterna round: R97, puzzle: Sensor, turn-off variant 1)”, the “apparent KD of MS2 coat protein” value runs as follows: (input ligand: FMN 200 uM) 18 nM; (input ligand: none) 19.1 nM.

Consider “AAUAACAGAGGAUAUACUAUUUUAUGUGUUUAUUGUUUUAAACAUGAGGAUCACCCAUGUAGAAGGCUGAAUAA [JMF 16] (puzzle: Exclusion 2)”, for which the “apparent KD of MS2 coat protein” value under setting [1] stood at 26.8 nM.

Turning to “AAUAACAGAGGAUAUACUAUUUUAUGUGUUUGUUAUUUUAAACAUGAGGAUCACCCAUGUAGAAGGCUGAUUAA [JMF 44] (Eterna round: R96, puzzle: Exclusion 2)”, the “apparent KD of MS2 coat protein” value was 47.7 nM (input ligand: FMN 200 uM), 34.3 nM under setting [2] and 42.7 nM (input ligand: none).

For the sequence “AAUAACAGAGGAUAUACUAUUUUAUGUGUUUGUUAUUUUAAACAUGAGGAUCACCCAUGUAGAAGGCUGAUUAA [JMF 44] (puzzle: Exclusion 2)”, the “apparent KD of MS2 coat protein” value under setting [1] was 38.5 nM.

Take “AAUAACAGAGGAUAUACUAUUUUAUGUGUUUGUUAUUUUGAACAUGAGGAUCACCCAUGUAGAAGGCUGAUUGA [JMF 77] (puzzle: Exclusion 2)”: under setting [1], the “apparent KD of MS2 coat protein” value was 41.1 nM.

With “AAUAACAGAGGAUAUACUAUUUUAUGUGUUUGUUGUUUUAAACAUGAGGAUCACCCAUGUAGAAGGCUGAAUAA [JMF 18] (puzzle: Exclusion 2)”, the “apparent KD of MS2 coat protein” value under setting [1] was determined as 20 nM.

“AAUAACAGAGGAUAUACUGUUUUAUGUGUUUAUUGUUUUAAACAUGAGGAUCACCCAUGUAGAAGGCUGAAUAA [JMF 17] (puzzle: Exclusion 2)”: the “apparent KD of MS2 coat protein” value under setting [1] worked out at 23.4 nM.

For “AAUAACAGAGGAUAUACUGUUUUAUGUGUUUAUUGUUUUGAACAUGAGGAUCACCCAUGUAGAAGGCUGAAUAA [JMF 25] (puzzle: Exclusion 2)”, under setting [1], the “apparent KD of MS2 coat protein” value was determined as 20.1 nM.

“AAUAAGAGAGGAUAUACUAAAAUAUGAAUAAAAUAAAUAAAACAUGAGGAUCACCCAUGUAGAAGGCUCAAUAA [JMF's Not so obvious solution 6] (puzzle: Exclusion 2)”: the “apparent KD of MS2 coat protein” value worked out at 23.1 nM under setting [3], 19.2 nM under setting [1] and 24.7 nM under setting [4].

For the sequence “AAUAAUAAGGAGGAUAUCGUAUCGGAAACGAUACGAGAAGGCUUAACAUGAGGAUCACCCAUGUUCCUCAAUAA [Fiskers Ex 6 - 22] (puzzle: Exclusion 6)”, the “apparent KD of MS2 coat protein” value under setting [1] is 33.5 nM.

“AAUAAUCAUGUAGGAUAUGCGUGGCAAAGCUAUGCAGAAGGACAUGAGGAUCACCCAUGUUCUAGCGUCUGCGUACAGAUGCUA [Mat - Exclusion NG 1 - Mod of JL - D80] (Eterna round: R96, puzzle: Exclusion NG 1)”: the “apparent KD of MS2 coat protein” value runs as follows: (input ligand: FMN 200 uM) 246 nM; under setting [2], 29.1 nM; (input ligand: none) 37.2 nM.

Regarding “AAUAGCAAGUAAGAUCCUAACAUGAGGAUCACCCAUGUGCUCGUCUUAUAAAGUACUAUCACGAAAGUGAUAGUACA [Sensor 3, v1 - 47] (puzzle: Sensor v3, turn-off variant 1)”, the “apparent KD of MS2 coat protein” value by setting is: under setting [3], 64.8 nM; under setting [1], 51.4 nM; under setting [4], 74.3 nM.

Turning to “AAUAUACAUGUAGGAUAUCUGCACGUUUAGUGCAGAGAAGGACAUGAGGAUCACCCAUGUAAUUAAGAUCAAUUAUUAAAUAUU [ENG1/3-B2] (Eterna round: R96, puzzle: Exclusion NG 1)”, the “apparent KD of MS2 coat protein” value is, setting by setting: (input ligand: FMN 200 uM) 437 nM; under setting [2], 39.6 nM; (input ligand: none) 63 nM.

Take “AAUCCACAUGAGGAUCACCCAUGUGAGGAUAUGAUACUAUGUACUUCGGUACAUAGUAUCAGAAGGCACAAAGG [Ex1-3: 52] (puzzle: Exclusion 1)”: the “apparent KD of MS2 coat protein” value under setting [1] came out at 56 nM.

As to “AAUCGAUCGCCGUACGCACACAUGAGGAUCACCCAUGUAGCUGAGGAUAUCCACCCAUAACGGUCGGAGAAGGCGGGACUGGGA [Eraananbi] (Eterna round: R96, puzzle: Exclusion NG 3)”, the “apparent KD of MS2 coat protein” value worked out at 30.8 nM (input ligand: FMN 200 uM), 11.3 nM under setting [2] and 19.1 nM (input ligand: none).

On to “AAUGAUUGACGAGGAUAUUGUGGUGAAACACGACGAGAAGGCGUAUGUCACAUGAGGAUCACCCAUGUGAGCUUUGUGGAUAUA [Ex NG1 #68] (Eterna round: R96, puzzle: Exclusion NG 1)”, for which the “apparent KD of MS2 coat protein” value amounted to 34.7 nM (input ligand: FMN 200 uM), 24.1 nM under setting [2] and 34.1 nM (input ligand: none).

Consider “AAUGUCUGAGGAUAUCGAAUAGUGUACAUGAGGAUCACCCAUGUUUUUAUUAGUAUAUUACGAGAAGGCAGUGGAA [JR_E5_Sub086] (puzzle: Exclusion 5)”, for which the “apparent KD of MS2 coat protein” value under setting [1] was determined as 16.1 nM.

For “AAUUAAUAUCAGGAUAUGACUUUCGAUAUUUAGUCAGAAGGGAUGACAUGAGGAUCACCCAUGUGAUCAAUUAA [JR_Ex6_Sub027] (Eterna round: R97, puzzle: Exclusion 6)”, the “apparent KD of MS2 coat protein” value is, setting by setting: (input ligand: FMN 200 uM) 101 nM; (input ligand: none) 37.7 nM.
